Measurements as given in KR20130126534A.

Molecular target: TNF-α
Test: ELISA, TNF-α coated 100 ng/well, protein titrated from 100 nM, anti-Human Fc-HRP

Kd: 68 pM
Substance: TNFR2 (단독) (from UniProt P20333 23-252) (Fc fusion)
